Assays:
[1] = target: T1, taxol-stabilized microtubules (tubulin) (Sus scrofa, UniProt P02550); experiment: TIRF microscopy, Hill fit (no added salt)
T1 chain 1: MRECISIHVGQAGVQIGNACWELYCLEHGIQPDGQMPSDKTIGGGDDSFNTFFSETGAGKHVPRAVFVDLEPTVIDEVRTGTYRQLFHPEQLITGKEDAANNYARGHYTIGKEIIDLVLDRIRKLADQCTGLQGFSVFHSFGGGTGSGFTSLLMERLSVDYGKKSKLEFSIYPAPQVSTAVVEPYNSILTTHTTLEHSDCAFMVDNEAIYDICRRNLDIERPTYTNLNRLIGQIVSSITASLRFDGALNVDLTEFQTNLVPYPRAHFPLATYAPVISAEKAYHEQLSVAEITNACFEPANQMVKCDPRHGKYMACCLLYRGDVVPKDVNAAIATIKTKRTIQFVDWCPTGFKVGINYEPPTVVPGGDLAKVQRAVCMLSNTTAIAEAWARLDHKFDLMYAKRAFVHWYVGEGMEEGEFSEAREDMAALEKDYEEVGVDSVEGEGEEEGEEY
T1 chain 2: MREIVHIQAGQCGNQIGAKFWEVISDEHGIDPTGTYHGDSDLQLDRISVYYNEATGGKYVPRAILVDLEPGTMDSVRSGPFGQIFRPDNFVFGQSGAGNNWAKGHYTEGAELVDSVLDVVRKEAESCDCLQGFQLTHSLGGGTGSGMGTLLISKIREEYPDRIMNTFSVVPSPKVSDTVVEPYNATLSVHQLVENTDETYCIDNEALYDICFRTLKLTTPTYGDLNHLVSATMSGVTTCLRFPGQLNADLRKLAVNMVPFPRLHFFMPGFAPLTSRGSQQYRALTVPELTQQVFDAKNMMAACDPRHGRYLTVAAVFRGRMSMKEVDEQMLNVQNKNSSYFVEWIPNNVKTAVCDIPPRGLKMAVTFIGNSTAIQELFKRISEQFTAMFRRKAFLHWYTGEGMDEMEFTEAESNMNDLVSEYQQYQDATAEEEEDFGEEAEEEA

[2] = target: T1, taxol-stabilized microtubules (tubulin); experiment: TIRF microscopy, Hill fit (150 mM salt)

- Kd [1]: ~29 nM
- Kd [2]: ~300 nM
B1: HURP 1-285 (protein)
chain: MSSSHFASRHRKDISTEMIRTKIAHRKSLSQKENRHKEYERNRHFGLKDVNIPTLEGRILVELDETSQGLVPEKTNVKPRAMKTILGDQRKQMLQKYKEEKQLQKLKEQREKAKRGIFKVGRYRPDMPCFLLSNQNAVKAEPKKAIPSSVRITRSKAKDQMEQTKIDNESDVRAIRPGPRQTSEKKVSDKEKKVVQPVMPTSLRMTRSATQAAKQVPRTVSSTTARKPVTRAANENEPEGKVPSKGRPAKNVETKPDKGISCKVDSEENTLNSQTNATSGMNPDG
modifications: C-terminal eGFP fusion, taxol-stabilized microtubules
